{
  "source": "patent US20070059825A1",
  "target": "human zalpha11 receptor (full-length, on cells) (human) (UniProt Q9HBE5)",
  "sequence (Q9HBE5 20-538 limits assumed)": "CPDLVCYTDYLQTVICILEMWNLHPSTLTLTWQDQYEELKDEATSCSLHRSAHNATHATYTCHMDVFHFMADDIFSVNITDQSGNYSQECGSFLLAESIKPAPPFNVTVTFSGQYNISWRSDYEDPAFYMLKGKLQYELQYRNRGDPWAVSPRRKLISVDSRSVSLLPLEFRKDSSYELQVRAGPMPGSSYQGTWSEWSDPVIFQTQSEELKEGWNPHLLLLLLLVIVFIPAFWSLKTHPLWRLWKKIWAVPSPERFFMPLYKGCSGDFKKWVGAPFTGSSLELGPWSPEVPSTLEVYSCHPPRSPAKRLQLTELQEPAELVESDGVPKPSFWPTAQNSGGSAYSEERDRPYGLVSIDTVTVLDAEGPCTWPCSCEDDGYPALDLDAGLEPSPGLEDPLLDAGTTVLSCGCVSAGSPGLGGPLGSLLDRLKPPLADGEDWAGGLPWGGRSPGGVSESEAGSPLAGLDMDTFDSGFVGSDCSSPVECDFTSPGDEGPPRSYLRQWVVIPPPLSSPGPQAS",
  "assay": "cell-based or functional assay",
  "data": [
    {"substance": "human zalpha11 Ligand-saporin immunotoxin conjugate", "values": [
      {"measurement": "growth inhibition of IM-9 cells at the maximal conjugate concentration (250 ng/ml), Alamar Blue", "value": 79, "unit": "%"},
      {"measurement": "growth inhibition of RAMOS cells at the maximal conjugate concentration (250 ng/ml), Alamar Blue", "value": 65, "unit": "%"}
    ]}
  ]
}
